Measured values: US20260152557A1 (Adimab, published 2026)
Changes are numbered by the printed parent chain.

B1: ADI-48587 (Antibody No. 2), human IgG1 (antibody, V domains shown)
VH: QVQLVQSGAEVKKPGASVKVSCKASGFNIKDYYMHWVRQAPGQRLEWMGWIDLENANTIYDAKFQGRVTITRDTSASTAYMELSSLRSEDTAVYYCARDHYHRYFYDVWGQGTLVTVSS
VL: DIVMTQSPDSLAVSLGERATINCKSSQSLLNARTGHNYLAWYQQKPGQPPKLLIYWASTRESGVPDRFSGSGSGTDFTLTISSLQAEDVAVYYCKQSHSHRTFGGGTKVEIK
notes: Tested as human IgG1 (yeast-produced aglycosylated, or CHO-produced); also called Ab No. 2; parent pH-dependent antibody
B2: ADI-79842 (Antibody No. 7), human IgG1 (antibody, V domains shown)
VH: B1 VH with H102G
VL: B1 VL with H36K, H98Y, H100R
notes: Tested as yeast-produced aglycosylated human IgG1
B3: ADI-79846 (Antibody No. 12), human IgG1 (antibody, V domains shown)
VH: B1 VH with E82G, H102G
VL: B1 VL
notes: as for B2
B4: ADI-79843 (Antibody No. 8), human IgG1 (antibody, V domains shown)
VH: B1 VH with H100A
VL: B1 VL with H36K, H98Y, H100R
notes: as for B2
B5: ADI-79847 (Antibody No. 13), human IgG1 (antibody, V domains shown)
VH: B1 VH
VL: B1 VL with H100R
notes: as for B2
B6: ADI-79844 (Antibody No. 10), human IgG1 (antibody, V domains shown)
VH: B1 VH with H100A, H102G
VL: B1 VL with H36K, H100R
notes: as for B2
B7: ADI-79848 (Antibody No. 9), human IgG1 (antibody, V domains shown)
VH: B1 VH with H100A, H102G
VL: B1 VL with H98Y, H100R
notes: as for B2
B8: ADI-79845 (Antibody No. 11), human IgG1 (antibody, V domains shown)
VH: B1 VH with H100A, H102G
VL: B1 VL with H36K, H98Y
notes: as for B2
B9: Fab of ADI-79842 (Antibody No. 7) (Fab, V domains shown)
VH: B1 VH with H102G
VL: B1 VL with H36K, H98Y, H100R
notes: Fab made by papain digestion of the yeast-produced human IgG1; also called Antibody No. 7 Fab; ADI-79842 Fab
B10: Fab of ADI-79845 (Antibody No. 11) (Fab, V domains shown)
VH: B1 VH with H100A, H102G
VL: B1 VL with H36K, H98Y
notes: Fab made by papain digestion of the yeast-produced human IgG1; also called Antibody No. 11 Fab; ADI-79845 Fab
B11: Fab of ADI-79844 (Antibody No. 10) (Fab, V domains shown)
VH: B1 VH with H100A, H102G
VL: B1 VL with H36K, H100R
notes: Fab made by papain digestion of the yeast-produced human IgG1; also called Antibody No. 10 Fab; ADI-79844 Fab
B12: Fab of ADI-74966 (Antibody No. 4) (Fab, V domains shown)
VH: B1 VH
VL: B1 VL with H98Y
notes: Fab made by papain digestion of the human IgG1 (yeast- or CHO-produced); also called Antibody No. 4 Fab; ADI-74966 Fab
B13: Fab of ADI-79848 (Antibody No. 9) (Fab, V domains shown)
VH: B1 VH with H100A, H102G
VL: B1 VL with H98Y, H100R
notes: Fab made by papain digestion of the yeast-produced human IgG1; also called Antibody No. 9 Fab; ADI-79848 Fab
B14: ADI-74966 (Antibody No. 4), human IgG1 (antibody, V domains shown)
VH: B1 VH
VL: B1 VL with H98Y
notes: Tested as human IgG1 (yeast-produced aglycosylated, or CHO-produced)
B15: Fab of ADI-79843 (Antibody No. 8) (Fab, V domains shown)
VH: B1 VH with H100A
VL: B1 VL with H36K, H98Y, H100R
notes: Fab made by papain digestion of the yeast-produced human IgG1; also called Antibody No. 8 Fab; ADI-79843 Fab

Experiments:
[1] = biological target: T1, human CD3 on CD3+ Jurkat cells (human, UniProt P07766 23-207); experiment: flow cytometry, yeast-produced IgG 100 nM on CD3+ Jurkat cells, pH 7.4
T1 construct: whole, on cells; The whole CD3 complex stands on the cells; also called Human CD3 Jurkat; human CD3+ Jurkat cells
T1 sequence (P07766 23-207): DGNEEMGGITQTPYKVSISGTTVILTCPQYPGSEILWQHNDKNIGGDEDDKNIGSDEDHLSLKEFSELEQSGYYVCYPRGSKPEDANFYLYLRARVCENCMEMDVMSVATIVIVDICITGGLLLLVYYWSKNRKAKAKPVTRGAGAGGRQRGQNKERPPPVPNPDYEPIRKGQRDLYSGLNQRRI
Method: (§1) Anti-CD3 antibodies Antibody Nos. 1-13 were produced as aglycosylated IgGs comprising a IgG1 Fc region in yeast cells. Binding to human or cynomolgus CD3-expressing cells (human CD3+ Jurkat cells or cynomolgus HSC-F cells, respectively) at pH 7.4 and pH 6.0 were measured by fluorescence-activated single cell sorting (FACS). Normalized cell binding (NCB) values were calculated based on median fluorescence intensity (MFI) values, CD3 negative Jurkat cells were used as a negative control.
(§2) Cell binding assay, CD3+ and CD3− human Jurkat cells (ATCC) and cynomolgus HSC-F cells (NIH) were thawed and washed with cold PBSF buffer, pH 7.4 (PBS+0.1% BSA, pH 7.4). About 200,000 cells were aliquoted per well of a 96-well plate (FACS Assay Plate VWR BD 353263) and pelleted by centrifugation (5 minutes at 500×g). The cells were washed with either PBSF pH 7.4 or PBSF pH 6.0 (PBS+0.1% BSA, pH 6.0), and then resuspended in 100 μl in either PBSF pH 7.4 or PBSF pH 6.0 with IgG antibody (100 nM) produced in yeast as described above. The mixture (cells+antibody) was incubated for 20 minutes on ice, then washed twice with either PBSF pH 7.4 or PBSF pH 6.0. Cells were resuspended in 50 μl of propidium iodide (Roche; 1:500 dilution) and anti-human IgG-RPE (Southern Biotech; 1:100 dilution) prepared in either PBSF pH 7.4 or PBSF pH 6.0, then incubated for 20 minutes on ice in the dark before cells were washed twice with either PBSF pH 7.4 or PBSF pH 6.0. Binding was analyzed on FACS Canto 11.

[2] = biological target: T2, human CD3εδ-Fc heterodimer (Hu CD3ε Fc / CD3δ Fc-HIS) (human, UniProt P04234 22-100); experiment: BLI (Octet), yeast-produced IgG on AHC sensor, CD3εδ-Fc 100 nM in solution, pH 6.0
T2 construct: range 22-100; Produced in HEK 293 cells with a heterologous signal peptide; heterodimer purified by Ni Sepharose and Mono Q; also called Hu CD3εδ Fc heterodimer; CD3εδ Fc-HIS heterodimer; not shown: Fc-HIS part of CD3δ Fc-HIS
T2 sequence (chain, as listed by the source mutant, form in doubt, chain 1 of 2): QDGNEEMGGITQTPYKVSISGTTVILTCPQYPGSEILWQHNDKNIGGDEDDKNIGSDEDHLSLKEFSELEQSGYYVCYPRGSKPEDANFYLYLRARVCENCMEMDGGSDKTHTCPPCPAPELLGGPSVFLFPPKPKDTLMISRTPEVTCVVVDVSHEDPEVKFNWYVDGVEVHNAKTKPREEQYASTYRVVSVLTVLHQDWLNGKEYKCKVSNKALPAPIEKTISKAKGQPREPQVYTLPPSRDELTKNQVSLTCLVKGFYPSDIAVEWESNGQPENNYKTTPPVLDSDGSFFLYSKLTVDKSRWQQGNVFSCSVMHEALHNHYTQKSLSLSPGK
T2 sequence (P04234 22-100, stated change not applied, form in doubt, chain 2 of 2): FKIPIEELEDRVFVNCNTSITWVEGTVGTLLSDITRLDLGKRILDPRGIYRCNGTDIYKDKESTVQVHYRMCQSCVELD
Method: (§3) Anti-CD3 antibodies Antibody Nos. 1-13 were produced as human IgG1 antibodies in yeast or CHO cells. IgGs produced in yeast were aglycosylated, CHO) produced IgGs had standard CH2 glycosylation. Binding affinity to human or cynomolgus CD3εδ-Fc at pH 7.4 and pH 6.0 was measured via biolayer interferometry (BLI) using the ForteBio OCTET® HTX system and analyzed using the ForteBio software.
(§4) Kinetics were analyzed using the 1:1 binding model.

[3] = biological target: T3, cynomolgus CD3εδ-Fc heterodimer (Cy CD3ε Fc / CD3δ Fc-HIS) (cynomolgus, UniProt Q95LI8 22-100); experiment: BLI (Octet), CHO-produced IgG on AHC sensor, CD3εδ-Fc 100 nM in solution, pH 6.0
T3 construct: range 22-100; Produced in HEK 293 cells; also called Cy CD3εδ Fc heterodimer; not shown: Fc-HIS part of CD3δ Fc-HIS
T3 sequence (chain, as listed by the source mutant, form in doubt, chain 1 of 2): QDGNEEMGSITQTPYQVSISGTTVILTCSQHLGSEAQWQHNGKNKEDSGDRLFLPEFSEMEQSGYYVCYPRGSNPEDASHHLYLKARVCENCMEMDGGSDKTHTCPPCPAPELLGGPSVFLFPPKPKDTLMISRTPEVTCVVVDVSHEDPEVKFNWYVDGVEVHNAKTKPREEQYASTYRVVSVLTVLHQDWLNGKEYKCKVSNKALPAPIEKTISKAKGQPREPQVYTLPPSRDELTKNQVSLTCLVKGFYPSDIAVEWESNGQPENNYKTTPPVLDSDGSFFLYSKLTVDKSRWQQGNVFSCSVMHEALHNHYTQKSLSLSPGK
T3 sequence (Q95LI8 22-100, stated change not applied, form in doubt, chain 2 of 2): as the sequence (P04234 22-100, stated change not applied, form in doubt, chain 2 of 2) above, with I5V, N15K, I20V, S32T, D33N, I34N, T64A, S74N counted along it
Method: as §3, §4

[4] = biological target: T4, cynomolgus CD3 on HSC-F cells (cynomolgus, UniProt Q95LI5 22-198); experiment: flow cytometry, yeast-produced IgG 100 nM on HSC-F cells, pH 7.4
T4 construct: whole, on cells; also called Cyno HSC-F; cynomolgus HSC-F cells
T4 sequence (Q95LI5 22-198): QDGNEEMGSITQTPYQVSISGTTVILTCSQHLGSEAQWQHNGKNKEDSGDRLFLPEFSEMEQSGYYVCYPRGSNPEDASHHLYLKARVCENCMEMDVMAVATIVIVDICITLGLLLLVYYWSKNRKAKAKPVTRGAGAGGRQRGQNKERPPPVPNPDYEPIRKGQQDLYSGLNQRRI
Method: as §1, §2

[5] = biological target: T4, cynomolgus CD3 on HSC-F cells; experiment: flow cytometry, yeast-produced IgG 100 nM on HSC-F cells, pH 6.0
Method: as §1, §2

[6] = biological target: T1, human CD3 on CD3+ Jurkat cells; experiment: flow cytometry, yeast-produced IgG 100 nM on CD3+ Jurkat cells, pH 6.0
Method: as §1, §2

[7] = biological target: T3, cynomolgus CD3εδ-Fc heterodimer (Cy …); experiment: BLI (Octet), yeast-produced IgG on AHC sensor, CD3εδ-Fc 100 nM in solution, pH 6.0
Method: as §3, §4

[8] = biological target: T3, cynomolgus CD3εδ-Fc heterodimer (Cy …); experiment: BLI (Octet), yeast-produced IgG on AHC sensor, CD3εδ-Fc 100 nM in solution, pH 7.4
Method: as §3, §4

[9] = biological target: T2, human CD3εδ-Fc heterodimer (Hu CD3ε Fc …); experiment: as above
Method: as §3, §4

[10] = biological target: T2, human CD3εδ-Fc heterodimer (Hu CD3ε Fc …); experiment: SPR (Biacore 8K), yeast-produced Fab, monovalent, pH 7.4
Method: (§5) Anti-CD3 antibodies (Antibody Nos. 1-13) were produced as human IgG1 antibodies in yeast or Chinese hamster ovary (CHO) cells, and Fab fragments were generated from the IgG1 antibodies by papain digestion and purified IgGs produced in yeast were aglycosylated. CHO produced IgGs had standard CH2 glycosylation. […] Monovalent binding affinity to human or cynomolgus CD3εδ-Fc at pH 7.4 and pH 6.0 were measured via surface plasmon resonance (SPR) using the BIACORE® 8K (Cytiva, previously GE Healthcare Life Sciences) system and analyzed using BIACORE® Evaluation Software.
(§6) BIACORE® KD measurements (surface plasmon resonance; SPR). BIACORE® affinity measurements were performed generally as previously described. Briefly, human CD3εδ-Fc heterodimer produced as described above was immobilized to a NiNTA sensor chip in a BIACORE® 8K (Cytiva, previously GE Healthcare Life Sciences) to a response level of ˜500 RUs. […] The sensor chip was doubly regenerated between cycles using 0.35 M EDTA and 0.1 M NaOH. The resulting data were double reference subtracted and fit to a 1:1 binding model using BIACORE® Evaluation Software.

[11] = biological target: T2, human CD3εδ-Fc heterodimer (Hu CD3ε Fc …); experiment: SPR (Biacore 8K), yeast-produced Fab, monovalent, pH 6.0
Method: as §5, §6

[12] = biological target: T2, human CD3εδ-Fc heterodimer (Hu CD3ε Fc …); experiment: BLI (Octet), CD3εδ-Fc on AHC sensor, CHO-derived Fab 100 nM in solution, pH 6.0
[13] = biological target: T3, cynomolgus CD3εδ-Fc heterodimer (Cy …); experiment: SPR (Biacore 8K), CHO-produced Fab, monovalent, pH 6.0
Method: as §5, §6

[14] = biological target: T2, human CD3εδ-Fc heterodimer (Hu CD3ε Fc …); experiment: as above
Method: as §5, §6

NCB [1]	Kd [2] [nM]	Kd [3] [nM]	NCB [4]	NCB [5]	NCB [6]	Kd [7] [nM]	Kd [8] [nM]	Kd [9] [nM]	Kd [10] [nM]	Kd [11] [nM]	Kd [12] [nM]	Kd [13] [nM]	Kd [14] [nM]	Binder
0	9.33	451	0	437	149	–	–	–	–	–	–	–	–	B1
139	6.52	–	172	575	208	6.88	17.9	16.1	–	–	–	–	–	B2
4	8.09	–	2	235	65	11.8	–	–	–	–	–	–	–	B3
149	1.6	–	174	603	207	1.76	5.66	6.64	–	–	–	–	–	B4
0	–	–	0	2	0	–	–	–	–	–	–	–	–	B5
147	3.6	–	160	603	196	2.94	5.42	6.51	–	–	–	–	–	B6
136	6.47	–	173	550	200	6.28	14.5	11.6	–	–	–	–	–	B7
149	1.04	–	167	581	200	–	8.06	9.87	–	–	–	–	–	B8
–	–	–	–	–	–	–	–	–	32.6	6.16	–	–	–	B9
–	–	–	–	–	–	–	–	–	8.5	1.96	–	–	–	B10
–	–	–	–	–	–	–	–	–	3.45	2.34	–	–	–	B11
–	–	–	–	–	–	–	–	–	–	16.3	36.7	26.1	19.5	B12
–	–	–	–	–	–	–	–	–	33.4	5.76	–	–	–	B13
0	6.95	209	0	378	131	9.71	47.6	–	–	–	–	–	–	B14
–	–	–	–	–	–	–	–	–	5.9	0.796	–	–	–	B15
